Data reported in US7531516B2, “Peptidic compounds selectively binding to P-selectin” (Astellas Pharma Europe B.V., priority 2001, dated 2009).
Positions of bridges follow the written chain, without caps; N, C: chain ends. Residues, ends and D or L forms follow the SMILES beside them. No end group written: not given here. *: point of attachment. Biotin = O=C1N[C@H]2[C@H](CS[C@H]2CCCCC(=O)*)N1; Ahx = NCCCCCC(=O)O

T1: chimeric human p-selectin (human, UniProt P16109 42-321)
T1 construct: also called human P-selectin-IgG
T1 sequence (looked up): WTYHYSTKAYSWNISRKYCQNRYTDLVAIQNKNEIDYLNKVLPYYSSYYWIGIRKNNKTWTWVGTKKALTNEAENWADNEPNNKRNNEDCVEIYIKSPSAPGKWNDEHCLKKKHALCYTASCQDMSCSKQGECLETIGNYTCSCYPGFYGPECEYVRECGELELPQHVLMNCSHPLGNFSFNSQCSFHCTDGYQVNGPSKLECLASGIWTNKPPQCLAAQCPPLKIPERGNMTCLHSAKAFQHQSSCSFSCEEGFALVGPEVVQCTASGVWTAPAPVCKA

T2: human p-selectin (Homo sapiens, UniProt P16109)
T2 sequence (P16109 42-830): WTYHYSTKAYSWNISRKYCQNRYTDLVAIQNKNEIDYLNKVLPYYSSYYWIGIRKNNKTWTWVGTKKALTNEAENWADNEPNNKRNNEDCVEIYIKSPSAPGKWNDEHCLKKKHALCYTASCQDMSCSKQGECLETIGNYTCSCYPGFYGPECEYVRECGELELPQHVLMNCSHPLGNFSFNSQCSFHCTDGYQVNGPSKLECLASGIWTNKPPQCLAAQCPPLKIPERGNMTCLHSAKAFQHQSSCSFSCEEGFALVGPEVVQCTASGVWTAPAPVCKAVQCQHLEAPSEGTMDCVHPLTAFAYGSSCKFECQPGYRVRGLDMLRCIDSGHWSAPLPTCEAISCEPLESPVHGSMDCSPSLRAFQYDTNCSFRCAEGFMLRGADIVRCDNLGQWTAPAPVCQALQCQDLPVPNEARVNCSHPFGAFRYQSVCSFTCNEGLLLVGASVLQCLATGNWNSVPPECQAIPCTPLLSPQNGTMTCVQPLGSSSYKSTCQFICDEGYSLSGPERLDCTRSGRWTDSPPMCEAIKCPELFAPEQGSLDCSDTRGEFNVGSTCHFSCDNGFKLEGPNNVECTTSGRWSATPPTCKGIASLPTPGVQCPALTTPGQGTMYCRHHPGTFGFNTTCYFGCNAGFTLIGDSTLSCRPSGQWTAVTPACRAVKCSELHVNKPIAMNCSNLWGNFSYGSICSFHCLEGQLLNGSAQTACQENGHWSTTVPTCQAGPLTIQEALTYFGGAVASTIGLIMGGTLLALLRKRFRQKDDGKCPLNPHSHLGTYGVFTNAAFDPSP


target: T1, chimeric human p-selectin; assay: competition ELISA; coated chimeric human P-selectin, competitor 2.5 nM TM11-strepPO complex; column head 'Affinity'; settings: not given
Method: (§1) Linear compounds were tested in the presence of DTT to prevent aggregate formation. After washing 6 times with assay buffer, the wells were incubated with 100 μl TMB/H_2O_2 for 15 min at RT. The reaction was stopped with 1 M H_2SO_4 and the absorbance read at 450 nm. From the results, the affinity constants were calculated: […]

| Molecule | IC50 [µM] |
| --- | --- |
| {Biotin-Ahx}-CPEFVDVEGDPGALLAC (cysteine pairing not given here, Linear compounds were tested in the presence of DTT) [Biotin-TM1] | 82 |
| {Biotin-Ahx}-CGWVDVIASGDTATLAC (cysteine pairing not given here, Linear compounds were tested in the presence of DTT) [Biotin-TM2] | 49 |
| {Biotin-Ahx}-CDVEWVDVSSLEWDLPC (disulfide 1-17) [Biotin-TM11(cyclic)] | 2 |
| {Biotin-Ahx}-CPDWVDVFKLVEGVMLC (cysteine pairing not given here, Linear compounds were tested in the presence of DTT) [Biotin-TM16] | 12 |
| {Biotin-Ahx}-VGLDPRDWVDVSDYA [Biotin-SH31] | 19 |
| {Biotin-Ahx}-CDVEWVDVSC (cysteine pairing not given here, Only TM11 is said to have been prepared in a cyclized form as well) [Biotin-A17] | 0.1 |

tested on: Human platelets; assay: Inhibition of platelet aggregation; format: cell-based; settings: human platelets activated by ADV
Method: Human platelets were activated by ADV, and the extent of platelet aggregation was measured in the presence or absence of EWVDV (SEQ ID No: 19)-containing peptides.

| Molecule | aggregation reduced (second phase of platelet aggregation) |
| --- | --- |
| D V E W V D V S (DVEWVDVS) [A19] | about 45% |
| C D V E W V D V S C (CDVEWVDVSC) [A17] | ~25% |

tested on: human P-selectin-IgG; assay: Binding of [3H]-cholesterol labeled sulfatide liposomes to human P-selectin-IgG; settings: liposomes carrying 22% of sulfatides, 2 hours at 4° C.
Method: Liposomes were prepared by sonication from egg yolk phosphatidylcholine, cholesterol, and sulfatides, all dissolved in chloroform/methanol (1:1, v/v), at weight ratios of 4:0.8:1.33. A tracer amount of [^3H]-cholesterol (1.3×10^8 dpm) was added, and the mixture was dried under a stream of nitrogen. The resulting lipid layer was vortexed in PBS and subsequently sonicated, resulting in liposomes with mean particle diameters of 59-62 nm.
Fc-specific goat anti-human IgG in coating buffer (50 mM NaHCO3, pH 9.6) was incubated in a high binding 96 well plate. The next day, wells were washed with assay buffer (20 mM HEPES, 150 mM NaCl, 1 mM CaCl2, pH 7.4) and incubated with blocking buffer (3% BSA in assay buffer). After washing, wells were incubated with human P-selectin-IgG, washed, and subsequently incubated with the [^3H]-cholesterol labeled liposomes in the presence or absence of the compounds below and antibodies for 2 hours at 4° C. After removal of unbound liposomes, bound liposomes were collected and counted using a scintillation counter.

| Molecule | inhibition of the binding of sulfatides to P-selectin |
| --- | --- |
| D V E W V D V S (DVEWVDVS) [A19] | significantly inhibited |
| DVEAVDVS [D V E A V D V S, reference compound] | did not |
| EWVDV [core motif peptide] | did not |
| C D V E W V D V S C (CDVEWVDVSC) [A17] | significantly inhibited |
| D V E W V D V A (DVEWVDVA) [A27] | significantly inhibited |

target: T2, human p-selectin; assay: Competition ELISA: displacement of TM11-strepPO complex from coated chimeric human P-selectin; format: binding; settings: competition with 2.5 nM TM11-strepPO, 1 hour at 4° C.; linear compounds in the presence of DTT; read-out: Affinity (affinity constant)
Method: The affinity of the compounds to P-selectin was investigated by using an adapted ELISA method. Streptavidin-horseradishperoxidase (strepPO) was incubated with TM11-biotin in a 1 to 4 molar ratio for 2 hours at RT, hereby forming a tetrameric peptide strepPO-complex. For competition studies, microtiter wells were coated with chimeric human p-selectin as described for the isolation of p-selectin binding phage. Wells were then incubated with 2.5 nM TM11-strepPO complex in assay buffer for 1 hour at 4° C., in the presence of titered amounts of peptides to compete for binding to human p-selectin. Linear compounds were tested in the presence of DTT to prevent aggregate formation. After washing 6 times with assay buffer, the wells were incubated with 100 μl TMB/H2O2 for 15 min at RT. The reaction was stopped with 1 M H2SO4 and the absorbance read at 450 nm. From the results, the affinity constants were calculated: […]

| Molecule | IC50 [µM] |
| --- | --- |
| CC(C)[C@H](NC(=O)[C@H](CC(=O)O)NC(=O)[C@@H](NC(=O)[C@H](Cc1c[nH]c2ccccc12)NC(=O)[C@H](CCC(=O)O)NC(=O)[C@@H](NC(=O)[C@H](CC(=O)O)NC(=O)CCCCCNC(=O)CCCC[C@@H]1SC[C@@H]2NC(=O)N[C@@H]21)C(C)C)C(C)C)C(=O)N[C@@H](CO)C(=O)O [Biotin-A19] ({Biotin-Ahx}-DVEWVDVS-OH) | 12 |
| CC(C)C[C@@H]1NC(=O)[C@H](CO)NC(=O)[C@H](CO)NC(=O)[C@H](C(C)C)NC(=O)[C@H](CC(=O)O)NC(=O)[C@H](C(C)C)NC(=O)[C@H](Cc2c[nH]c3ccccc23)NC(=O)[C@H](CCC(=O)O)NC(=O)[C@H](C(C)C)NC(=O)[C@H](CC(=O)O)NC(=O)[C@@H](NC(=O)CCCCCNC(=O)CCCC[C@@H]2SC[C@@H]3NC(=O)N[C@@H]32)CSSC[C@@H](C(=O)O)NC(=O)[C@@H]2CCCN2C(=O)[C@H](CC(C)C)NC(=O)[C@H](CC(=O)O)NC(=O)[C@H](Cc2c[nH]c3ccccc23)NC(=O)[C@H](CCC(=O)O)NC1=O [Biotin-TM11(cyclic)] ({Biotin-Ahx}-CDVEWVDVSSLEWDLPC-OH; disulfide 1-17) | 2 |
| CC(C)C[C@H](NC(=O)[C@H](CO)NC(=O)[C@H](CO)NC(=O)[C@@H](NC(=O)[C@H](CC(=O)O)NC(=O)[C@@H](NC(=O)[C@H](Cc1c[nH]c2ccccc12)NC(=O)[C@H](CCC(=O)O)NC(=O)[C@@H](NC(=O)[C@H](CC(=O)O)NC(=O)[C@H](CS)NC(=O)CCCCCNC(=O)CCCC[C@@H]1SC[C@@H]2NC(=O)N[C@@H]21)C(C)C)C(C)C)C(C)C)C(=O)N[C@@H](CCC(=O)O)C(=O)N[C@@H](Cc1c[nH]c2ccccc12)C(=O)N[C@@H](CC(=O)O)C(=O)N[C@@H](CC(C)C)C(=O)N1CCC[C@H]1C(=O)N[C@@H](CS)C(=O)O [Biotin-TM11] ({Biotin-Ahx}-CDVEWVDVSSLEWDLPC-OH) | 2 |

target: T1, chimeric human p-selectin; assay: affinity to human P-selectin, prepared and tested as in example 1 (competition ELISA against TM11-strepPO complex); column head 'Affinity [µM]'; settings: not given
Method: as §1

| Molecule | IC50 [µM] |
| --- | --- |
| {Biotin-Ahx}-DVEAVDVS (Comparative compound) | 400000 |
| {Biotin-Ahx}-DVEWADVS (Comparative compound) | 1400 |
| {Biotin-Ahx}-DVEWVAVS (Comparative compound) | 21000 |
| {Biotin-Ahx}-DVEWVDAS (Comparative compound) | 13000 |
| {Biotin-Ahx}-EWVKVA (Comparative compound) | 13000 |
